{"source": "patent US20170304355A1", "about": "“COMPOSITIONS AND METHODS OF USE THEREOF” (priority 2014, published 2017)", "molecules": {"B1": {"name": "lactoferrin: Lactoferrin, comparator pretreatment at 100 ng/ml (protein, UniProt P02788 20-710, looked up)", "Lactotransferrin": "GRRRSVQWCAVSQPEATKCFQWQRNMRKVRGPPVSCIKRDSPIQCIQAIAENRADAVTLDGGFIYEAGLAPYKLRPVAAEVYGTERQPRTHYYAVAVVKKGGSFQLNELQGLKSCHTGLRRTAGWNVPIGTLRPFLNWTGPPEPIEAAVARFFSASCVPGADKGQFPNLCRLCAGTGENKCAFSSQEPYFSYSGAFKCLRDGAGDVAFIRESTVFEDLSDEAERDEYELLCPDNTRKPVDKFKDCHLARVPSHAVVARSVNGKEDAIWNLLRQAQEKFGKDKSPKFQLFGSPSGQKDLLFKDSAIGFSRVPPRIDSGLYLGSGYFTAIQNLRKSEEEVAARRARVVWCAVGEQELRKCNQWSGLSEGSVTCSSASTTEDCIALVLKGEADAMSLDGGYVYTAGKCGLVPVLAENYKSQQSSDPDPNCVDRPVEGYLAVAVVRRSDTSLTWNSVKGKKSCHTAVDRTAGWNIPMGLLFNQTGSCKFDEYFSQSCAPGSDPRSNLCALCIGDEQGENKCVPNSNERYYGYTGAFRCLAENAGDVAFVKDVTVLQNTDGNNNEAWAKDLKLADFALLCLDGKRKPVTEARSCHLAMAPNHAVVSRMDKVERLKQVLLHQQAKFGRNGSDCPDKFCLFQSETKNLLFNDNTECLARLHGKTTYEKYLGPQYVAGITNLKKCSTSPLLEACEFLRK"}}, "system": "IL-8", "experiment": "LPS stimulated IL-8 ELISA in U937 macrophages, PAAG and lactoferrin", "format": "cell-based, human", "conditions": "100 ng/ml lactoferrin pretreatment 1 hour, LPS stimulation; at 24 hours; FIG. 31"}
{"molecule": "B1", "values": [{"measurement": "IL-8 secretion suppression", "value": "IL-8 secretion suppression"}]}
